Assay results from the Immune Epitope Database (IEDB).

How the values were obtained:
HLA-B*07:02 = test: IEDB peptide-MHC binding, purified MHC/competitive/radioactivity; filed as Kd, often an IC50 or EC50 that approximates it; ≥ and ≤ were set here for values at or beyond the usual limits of such assays
HLA-B*51:01 [1] = test: as above
HLA-B*35:01 = test: as above
HLA-B*53:01 = test: as above
HLA-B*54:01 = test: as above
HLA-A*24:02 = test: IEDB peptide-MHC binding, purified MHC/competitive/fluorescence; ≥ and ≤ were set here for values at or beyond the usual limits of such assays
HLA-A*11:01 [2] = test: as above
HLA-A*02:17 = test: IEDB peptide-MHC binding, purified MHC/competitive/radioactivity; filed as Kd, often an IC50 or EC50 that approximates it; ≥ and ≤ were set here for values at or beyond the usual limits of such assays
HLA-A*02:06 = test: as above
HLA-A*02:01 [3] = test: as above
HLA-A*02:03 = test: as above
HLA-A*32:01 = test: as above; settings: source organism: Dengue virus 1 Brazil/97-11/1997
HLA-A*02:02 = test: as above; settings: source organism: Vaccinia virus WR
HLA-A*68:01 = test: as above; settings: source organism: Vaccinia virus WR
HLA-A*03:01 = test: as above; settings: source organism: Vaccinia virus WR
HLA-A*11:01 [4] = test: as above; settings: source organism: Vaccinia virus WR
HLA-A*33:01 = test: as above; settings: source organism: Vaccinia virus WR
HLA-A*31:01 = test: as above; settings: source organism: Vaccinia virus WR
HLA-A*68:02 = test: as above; settings: source organism: Vaccinia virus WR
HLA-B*51:01 [5] = test: IEDB peptide-MHC binding, purified MHC/competitive/fluorescence; filed as Kd, often an IC50 or EC50 that approximates it; ≥ and ≤ were set here for values at or beyond the usual limits of such assays; settings: source organism: Mycobacterium tuberculosis CDC1551
HLA-A*02:01 [6] = test: IEDB peptide-MHC binding, purified MHC/competitive/fluorescence; ≥ and ≤ were set here for values at or beyond the usual limits of such assays; settings: source organism: Zaire ebolavirus
[7] = source organism: Vaccinia virus WR
[8] = source organism: Vaccinia virus
[9] = source organism: Mammarenavirus juninense
[10] = source organism: SARS coronavirus Tor2
[11] = source organism: Dengue virus 2 Jamaica/1409/1983
[12] = source organism: Dengue virus 3 Sri Lanka/1266/2000
[13] = source organism: Dengue virus 3 Martinique/1243/1999
[14] = source organism: Dengue virus 3 China/80-2/1980
[15] = source organism: Dengue virus 1 Brazil/97-11/1997
[16] = source organism: Zaire ebolavirus
[17] = source organism: Mammarenavirus guanaritoense
[18] = source organism: Triticum aestivum
[19] = source organism: Mammarenavirus machupoense

APIKEFKAKI
Kd (HLA-B*07:02; [7]): 20.2 nM
Kd (HLA-B*51:01 [1]; [7]): ≥ 22400 nM
Kd (HLA-B*35:01; [7]): ≥ 41400 nM
Kd (HLA-B*53:01; [7]): 12000 nM
Kd (HLA-B*54:01; [7]): 11200 nM

GGKVFAPKQ
IC50 (HLA-A*24:02; [8]): ≥ 2250 µM
IC50 (HLA-A*11:01 [2]; [8]): ≥ 244 µM

HPDMDSMMI
Kd (HLA-B*07:02; [9]): 806 nM
Kd (HLA-B*51:01 [1]; [9]): 3310 nM
Kd (HLA-B*35:01; [9]): 1490 nM
Kd (HLA-B*53:01; [9]): 167 nM
Kd (HLA-B*54:01; [9]): ≥ 68400 nM

HPLADNKFAL
Kd (HLA-B*07:02; [10]): 97.1 nM
Kd (HLA-B*51:01 [1]; [10]): 991 nM
Kd (HLA-B*35:01; [10]): 185 nM
Kd (HLA-B*53:01; [10]): 783 nM
Kd (HLA-B*54:01; [10]): 7110 nM

IILEFFLIV
Kd (HLA-A*02:17; [11]): 89.8 nM
Kd (HLA-A*02:06; [11]): 0.384 nM

ILAGVSLLPV
Kd (HLA-A*02:01 [3]; [12]): 4.65 nM
Kd (HLA-A*02:17; [12]): 1680 nM
Kd (HLA-A*02:03; [13]): 8.16 nM
Kd (HLA-A*02:06; [13]): 1.59 nM

ILALFLAHYI
Kd (HLA-A*02:17; [14]): 266 nM
Kd (HLA-A*02:03; [13]): 33.5 nM

ILWENNIKL
Kd (HLA-A*02:17; [14]): 91.1 nM

IMAIGIVSI
Kd (HLA-A*02:01 [3]; [15]): 13.2 nM
Kd (HLA-A*02:17; [15]): 699 nM
Kd (HLA-A*02:03; [15]): 13.4 nM
Kd (HLA-A*32:01): 77.6 nM

IPFIAYFVLM
Kd (HLA-A*02:02): 3.19 µM
Kd (HLA-A*02:01 [3]; [7]): 1330 nM
Kd (HLA-A*02:03; [7]): 2050 nM
Kd (HLA-B*07:02; [7]): ≥ 39600 nM
Kd (HLA-A*68:01): 1480 nM
Kd (HLA-A*03:01): 654 nM
Kd (HLA-B*51:01 [1]; [7]): 2230 nM
Kd (HLA-A*11:01 [4]): 4520 nM
Kd (HLA-A*02:06; [7]): 7870 nM
Kd (HLA-A*33:01): 1470 nM
Kd (HLA-B*35:01; [7]): 1210 nM
Kd (HLA-B*53:01; [7]): 1300 nM
Kd (HLA-B*54:01; [7]): 2000 nM
Kd (HLA-A*31:01): 652 nM
Kd (HLA-A*68:02): 9.33 µM

LDGQQFYWP
IC50 (HLA-A*24:02; [16]): ≥ 210 µM
IC50 (HLA-A*11:01 [2]; [16]): ≥ 150 µM

LPFTLGIMAI
Kd (HLA-B*07:02; [10]): 743 nM
Kd (HLA-B*51:01 [1]; [10]): 1210 nM
Kd (HLA-B*35:01; [10]): 4980 nM
Kd (HLA-B*53:01; [10]): 487 nM
Kd (HLA-B*54:01; [10]): 150 nM

LPHLCLDYKV
Kd (HLA-B*07:02; [7]): 8450 nM
Kd (HLA-B*51:01 [1]; [7]): 360 nM
Kd (HLA-B*35:01; [7]): 10100 nM
Kd (HLA-B*53:01; [7]): 1080 nM
Kd (HLA-B*54:01; [7]): 4.99 nM

LPIFSEFVL
Kd (HLA-B*07:02; [17]): 217 nM
Kd (HLA-B*51:01 [1]; [17]): 18500 nM
Kd (HLA-B*35:01; [17]): 8.59 nM
Kd (HLA-B*53:01; [17]): 55.8 nM
Kd (HLA-B*54:01; [17]): 491 nM

LPPGSDEHI
Kd (HLA-B*51:01 [5]): ≥ 20 µM

LPYPQPQPF
Kd (HLA-B*07:02; [18]): 69.3 nM
Kd (HLA-B*51:01 [1]; [18]): 2.85 nM
Kd (HLA-B*35:01; [18]): 2.53 nM
Kd (HLA-B*53:01; [18]): 16.1 nM
Kd (HLA-B*54:01; [18]): 742 nM

MLLILCVTQV
Kd (HLA-A*02:01 [3]; [11]): 4.15 nM
Kd (HLA-A*02:17; [11]): 158 nM
Kd (HLA-A*02:03; [11]): 18.2 nM
Kd (HLA-A*02:06; [11]): 7.91 nM

MPALTIACM
Kd (HLA-B*07:02; [19]): 142 nM
Kd (HLA-B*51:01 [1]; [19]): 3700 nM
Kd (HLA-B*35:01; [19]): 5.23 nM
Kd (HLA-B*53:01; [19]): 25.7 nM
Kd (HLA-B*54:01; [19]): 836 nM

MVIENGILKK
Kd (HLA-A*02:02): ≥ 70 µM
Kd (HLA-A*02:01 [3]; [7]): ≥ 69400 nM
Kd (HLA-A*02:03; [7]): ≥ 70400 nM
Kd (HLA-B*07:02; [7]): ≥ 69600 nM
Kd (HLA-A*68:01): 14.9 nM
Kd (HLA-A*03:01): 38.3 nM
Kd (HLA-B*51:01 [1]; [7]): ≥ 69600 nM
Kd (HLA-A*11:01 [4]): 12.3 nM
Kd (HLA-A*02:06; [7]): ≥ 69800 nM
Kd (HLA-A*33:01): ≥ 35100 nM
Kd (HLA-B*35:01; [7]): ≥ 30300 nM
Kd (HLA-B*53:01; [7]): ≥ 69900 nM
Kd (HLA-B*54:01; [7]): ≥ 69900 nM
Kd (HLA-A*31:01): 4860 nM
Kd (HLA-A*68:02): 11.2 µM

NVPGPHRTI
IC50 (HLA-A*02:01 [6]): 16 µM
IC50 (HLA-A*24:02; [16]): 2.2 µM
IC50 (HLA-A*11:01 [2]; [16]): 54.4 µM
